# According to PMC4070327:
# Target: TF^SBD-PPD (substrate-binding domain plus peptidyl prolyl isomerase domain of E. coli TF) (E. coli) (UniProt P0A850)
# Assay: NMR relaxation dispersion
# PhoA^d-e (PhoA fragment with TF-binding sites d and e), sequence (P00634 220-310): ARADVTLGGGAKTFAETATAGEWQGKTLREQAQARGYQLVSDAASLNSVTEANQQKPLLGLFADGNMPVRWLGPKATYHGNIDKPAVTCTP
Substance,koff [s⁻¹],residence time (1/koff) [ms]
PhoA^a-c (PhoA fragment with TF-binding sites a to c) (from UniProt P00634 1-150) (domain or fragment),50,20
PhoA^d-e (PhoA fragment with TF-binding sites d and e) (from UniProt P00634 220-310) (domain or fragment),–,20
